Laboratory results: patent US20180112192A1 (NATIONAL TAIWAN UNIVERSITY, published 2018)

Target: T1, Wild-type EGFR-GFP (UniProt P00533 25-1210)
T1 construct: whole, on cells; not shown: GFP fusion
Assay: co-localization by confocal and 3D-SIM microscopy, co-overexpression in CL1-5 cells (FIG. 1C)
Text: FIGS. 1A-1C show interaction between PINK1 and EGFR in lung adenocarcinoma cells. […] 3D-structured illumination microscopy images specifically disclosed the interaction beneath the cytoplasmic membrane (III and IV).

binding result: binds
B1: myc-fused full-length PINK1 construct (amino acids 1-581) (enzyme)
chain: MAVRQALGRGLQLGRALLLRFTGKPGRAYGLGRPGPAAGCVRGERPGWAAGPGAEPRRVGLGLPNRLRFFRQSVAGLAARLQRQFVVRAWGCAGPCGRAVFLAFGLGLGLIEEKQAESRRAVSACQEIQAIFTQKSKPGPDPLDTRRLQGFRLEEYLIGQSIGKGCSAAVYEATMPTLPQNLEVTKSTGLLPGRGPGTSAPGEGQERAPGAPAFPLAIKMMWNISAGSSSEAILNTMSQELVPASRVALAGEYGAVTYRKSKRGPKQLAPHPNIIRVLRAFTSSVPLLPGALVDYPDVLPSRLHPEGLGHGRTLFLVMKNYPCTLRQYLCVNTPSPRLAAMMLLQLLEGVDHLVQQGIAHRDLKSDNILVELDPDGCPWLVIADFGCCLADESIGLQLPFSSWYVDRGGNGCLMAPEVSTARPGPRAVIDYSKADAWAVGAIAYEIFGLVNPFYGQGKAHLESRSYQEAQLPALPESVPPDVRQLVRALLQREASKRPSARVAANVLHLSLWGEHILALKNLKLDKMVGWLLQQSAATLLANRLTEKCCVETKMKMLFLANLECETLCQAALLLCSWRAAL
notes: also called PINK1-myc; not shown: myc tag
